Laboratory results as given in the supplement of paper PMC10065799, “High-throughput profiling of sequence recognition by tyrosine kinases and SH2 domains using bacterial peptide display” (eLife, 2023).

Experiments:
Fes = Fes (UniProt P07332); experiment: phosphorylation enrichment, bacterial display (enrichment ratio); higher = better substrate or ligand; peptides without Tyr show the background
Jak2 = Jak2 (UniProt O60674); experiment: as above
c-Src = experiment: as above
Fyn = Fyn (UniProt P06241); experiment: as above
FGFR3 = FGFR3 (UniProt P22607); experiment: as above
c-Abl (mouse) = experiment: as above
EPHB1 = EPHB1 (UniProt P54762); experiment: as above
FGFR1 = FGFR1 (UniProt P11362); experiment: as above
Hck = Hck (UniProt P08631); experiment: as above
AncSZ = experiment: as above
EPHB2 = EPHB2 (UniProt P29323); experiment: as above
MERTK = MERTK (UniProt Q12866); experiment: as above
Fer (mouse) = experiment: as above
c-Src SH2 = experiment: SH2 binding enrichment of the phosphorylated peptide, bacterial display (enrichment ratio); higher = better substrate or ligand; peptides without Tyr show the background
SHP2-C SH2 = experiment: as above
Grb2 SH2 = Grb2 SH2 (UniProt P62993); experiment: as above
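Wherever SH2 binding enrichment of the phosphorylated peptide, bacterial display is given: peptide library displayed on the E. coli surface as eCPX fusions, selected cells deep-sequenced, score is each peptide's frequency after selection divided by its frequency in the input.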
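Wherever phosphorylation enrichment, bacterial display is given: 11-residue human phosphosite peptides and single-mutation variants displayed on the E. coli surface, counted by deep sequencing, each peptide's frequency after selection divided by its frequency in the unselected input library; frequency after pTyr selection over input frequency; kinase dosed for 20-30% of maximal phosphorylation in three min.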

Chain of EPHB2 (P29323 whole entry, looked up): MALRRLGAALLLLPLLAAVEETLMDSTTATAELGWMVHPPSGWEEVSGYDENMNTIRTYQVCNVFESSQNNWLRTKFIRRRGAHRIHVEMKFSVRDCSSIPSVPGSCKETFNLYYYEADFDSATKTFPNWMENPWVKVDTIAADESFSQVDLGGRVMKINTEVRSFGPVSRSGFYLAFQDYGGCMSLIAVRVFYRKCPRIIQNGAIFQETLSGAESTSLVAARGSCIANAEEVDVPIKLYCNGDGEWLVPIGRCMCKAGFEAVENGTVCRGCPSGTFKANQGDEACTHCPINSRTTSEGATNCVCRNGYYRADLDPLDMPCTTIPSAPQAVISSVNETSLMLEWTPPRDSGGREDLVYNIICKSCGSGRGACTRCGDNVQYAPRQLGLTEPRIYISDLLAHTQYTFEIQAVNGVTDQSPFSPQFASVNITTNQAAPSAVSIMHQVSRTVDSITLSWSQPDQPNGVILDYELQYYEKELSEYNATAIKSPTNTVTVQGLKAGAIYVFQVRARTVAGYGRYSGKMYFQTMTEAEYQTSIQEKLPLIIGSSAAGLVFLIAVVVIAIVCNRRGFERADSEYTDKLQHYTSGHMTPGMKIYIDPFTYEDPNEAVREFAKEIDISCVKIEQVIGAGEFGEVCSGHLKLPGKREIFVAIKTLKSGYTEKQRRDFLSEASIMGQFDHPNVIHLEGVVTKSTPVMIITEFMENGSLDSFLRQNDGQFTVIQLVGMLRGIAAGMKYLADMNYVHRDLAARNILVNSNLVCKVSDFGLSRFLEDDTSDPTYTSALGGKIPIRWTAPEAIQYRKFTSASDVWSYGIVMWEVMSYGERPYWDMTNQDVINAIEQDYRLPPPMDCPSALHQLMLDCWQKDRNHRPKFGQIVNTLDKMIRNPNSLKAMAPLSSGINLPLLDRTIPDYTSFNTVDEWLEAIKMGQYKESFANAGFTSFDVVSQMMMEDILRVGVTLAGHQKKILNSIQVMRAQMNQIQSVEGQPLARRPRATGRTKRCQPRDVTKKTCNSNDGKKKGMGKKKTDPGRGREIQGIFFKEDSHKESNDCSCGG
Chain of Grb2 SH2 (P62993 whole entry, looked up, the tested form may be a part): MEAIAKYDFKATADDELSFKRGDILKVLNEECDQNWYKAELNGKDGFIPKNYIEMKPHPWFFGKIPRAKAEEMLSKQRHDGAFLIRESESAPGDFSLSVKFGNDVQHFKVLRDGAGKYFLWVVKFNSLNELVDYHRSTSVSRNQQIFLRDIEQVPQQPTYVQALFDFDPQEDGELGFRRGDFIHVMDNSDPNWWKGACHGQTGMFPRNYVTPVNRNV
Chain of Jak2 (O60674 whole entry, looked up): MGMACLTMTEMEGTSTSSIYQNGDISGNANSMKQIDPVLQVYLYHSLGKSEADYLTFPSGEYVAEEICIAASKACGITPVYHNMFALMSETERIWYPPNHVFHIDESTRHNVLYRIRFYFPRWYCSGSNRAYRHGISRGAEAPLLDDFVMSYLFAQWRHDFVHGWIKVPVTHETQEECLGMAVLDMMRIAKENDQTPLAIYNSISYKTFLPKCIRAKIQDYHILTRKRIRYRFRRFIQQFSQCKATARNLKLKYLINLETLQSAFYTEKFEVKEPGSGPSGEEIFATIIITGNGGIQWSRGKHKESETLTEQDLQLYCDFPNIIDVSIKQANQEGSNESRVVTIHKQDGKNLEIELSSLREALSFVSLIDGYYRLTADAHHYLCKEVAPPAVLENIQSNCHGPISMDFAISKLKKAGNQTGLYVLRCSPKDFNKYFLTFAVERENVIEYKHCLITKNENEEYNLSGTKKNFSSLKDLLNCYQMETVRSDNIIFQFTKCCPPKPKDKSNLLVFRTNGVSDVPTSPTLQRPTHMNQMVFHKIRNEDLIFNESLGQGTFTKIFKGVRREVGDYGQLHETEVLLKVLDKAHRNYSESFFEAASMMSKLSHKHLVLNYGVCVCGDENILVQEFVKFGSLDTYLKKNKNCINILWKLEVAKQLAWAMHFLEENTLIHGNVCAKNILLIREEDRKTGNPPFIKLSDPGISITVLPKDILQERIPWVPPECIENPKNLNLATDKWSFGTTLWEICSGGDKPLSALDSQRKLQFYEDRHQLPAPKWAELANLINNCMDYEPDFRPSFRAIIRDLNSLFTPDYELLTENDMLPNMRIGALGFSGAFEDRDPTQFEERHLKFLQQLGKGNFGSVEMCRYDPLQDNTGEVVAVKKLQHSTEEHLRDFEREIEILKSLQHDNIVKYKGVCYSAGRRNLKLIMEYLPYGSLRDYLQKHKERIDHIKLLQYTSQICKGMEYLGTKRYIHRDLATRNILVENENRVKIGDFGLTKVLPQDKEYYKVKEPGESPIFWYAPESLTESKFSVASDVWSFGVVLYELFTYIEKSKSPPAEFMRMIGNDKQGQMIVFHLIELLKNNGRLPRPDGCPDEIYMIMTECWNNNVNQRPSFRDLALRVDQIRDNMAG
Chain of FGFR1 (P11362 whole entry, looked up): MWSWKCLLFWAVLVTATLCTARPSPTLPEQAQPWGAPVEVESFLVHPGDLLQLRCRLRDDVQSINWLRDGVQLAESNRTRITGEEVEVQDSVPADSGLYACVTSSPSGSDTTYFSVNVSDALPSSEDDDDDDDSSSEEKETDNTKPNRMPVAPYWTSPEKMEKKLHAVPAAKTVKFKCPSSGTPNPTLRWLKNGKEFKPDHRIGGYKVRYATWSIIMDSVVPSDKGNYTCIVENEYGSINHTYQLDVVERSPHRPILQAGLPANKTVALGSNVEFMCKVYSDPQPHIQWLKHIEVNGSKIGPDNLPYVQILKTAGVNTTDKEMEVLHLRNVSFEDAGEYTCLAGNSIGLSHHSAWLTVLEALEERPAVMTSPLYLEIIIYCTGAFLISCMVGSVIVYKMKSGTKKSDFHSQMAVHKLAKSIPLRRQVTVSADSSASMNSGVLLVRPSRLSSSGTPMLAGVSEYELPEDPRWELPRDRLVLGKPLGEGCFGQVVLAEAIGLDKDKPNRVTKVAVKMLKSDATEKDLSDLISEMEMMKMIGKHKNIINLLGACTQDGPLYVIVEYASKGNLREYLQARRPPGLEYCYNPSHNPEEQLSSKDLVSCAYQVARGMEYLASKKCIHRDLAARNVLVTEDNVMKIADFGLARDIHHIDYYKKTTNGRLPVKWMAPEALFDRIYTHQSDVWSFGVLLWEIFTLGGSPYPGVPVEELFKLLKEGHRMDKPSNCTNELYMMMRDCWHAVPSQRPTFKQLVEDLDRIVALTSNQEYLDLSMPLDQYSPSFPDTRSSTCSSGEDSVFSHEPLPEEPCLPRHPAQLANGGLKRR
Chain of Fyn (P06241 whole entry, looked up): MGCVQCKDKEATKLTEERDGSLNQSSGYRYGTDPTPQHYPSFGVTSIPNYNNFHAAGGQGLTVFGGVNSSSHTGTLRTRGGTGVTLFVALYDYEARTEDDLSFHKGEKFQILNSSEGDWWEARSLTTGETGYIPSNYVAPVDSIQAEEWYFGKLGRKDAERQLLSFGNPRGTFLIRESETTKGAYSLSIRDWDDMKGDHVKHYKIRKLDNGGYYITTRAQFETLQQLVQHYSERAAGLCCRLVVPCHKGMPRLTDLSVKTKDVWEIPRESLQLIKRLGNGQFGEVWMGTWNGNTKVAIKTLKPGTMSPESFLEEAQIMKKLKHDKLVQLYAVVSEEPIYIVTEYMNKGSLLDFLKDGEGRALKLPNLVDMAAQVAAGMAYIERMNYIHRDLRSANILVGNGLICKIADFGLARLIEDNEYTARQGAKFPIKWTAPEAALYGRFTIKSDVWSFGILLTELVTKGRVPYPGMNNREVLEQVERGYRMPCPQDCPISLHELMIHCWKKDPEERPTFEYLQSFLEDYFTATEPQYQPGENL
Chain of EPHB1 (P54762 whole entry, looked up): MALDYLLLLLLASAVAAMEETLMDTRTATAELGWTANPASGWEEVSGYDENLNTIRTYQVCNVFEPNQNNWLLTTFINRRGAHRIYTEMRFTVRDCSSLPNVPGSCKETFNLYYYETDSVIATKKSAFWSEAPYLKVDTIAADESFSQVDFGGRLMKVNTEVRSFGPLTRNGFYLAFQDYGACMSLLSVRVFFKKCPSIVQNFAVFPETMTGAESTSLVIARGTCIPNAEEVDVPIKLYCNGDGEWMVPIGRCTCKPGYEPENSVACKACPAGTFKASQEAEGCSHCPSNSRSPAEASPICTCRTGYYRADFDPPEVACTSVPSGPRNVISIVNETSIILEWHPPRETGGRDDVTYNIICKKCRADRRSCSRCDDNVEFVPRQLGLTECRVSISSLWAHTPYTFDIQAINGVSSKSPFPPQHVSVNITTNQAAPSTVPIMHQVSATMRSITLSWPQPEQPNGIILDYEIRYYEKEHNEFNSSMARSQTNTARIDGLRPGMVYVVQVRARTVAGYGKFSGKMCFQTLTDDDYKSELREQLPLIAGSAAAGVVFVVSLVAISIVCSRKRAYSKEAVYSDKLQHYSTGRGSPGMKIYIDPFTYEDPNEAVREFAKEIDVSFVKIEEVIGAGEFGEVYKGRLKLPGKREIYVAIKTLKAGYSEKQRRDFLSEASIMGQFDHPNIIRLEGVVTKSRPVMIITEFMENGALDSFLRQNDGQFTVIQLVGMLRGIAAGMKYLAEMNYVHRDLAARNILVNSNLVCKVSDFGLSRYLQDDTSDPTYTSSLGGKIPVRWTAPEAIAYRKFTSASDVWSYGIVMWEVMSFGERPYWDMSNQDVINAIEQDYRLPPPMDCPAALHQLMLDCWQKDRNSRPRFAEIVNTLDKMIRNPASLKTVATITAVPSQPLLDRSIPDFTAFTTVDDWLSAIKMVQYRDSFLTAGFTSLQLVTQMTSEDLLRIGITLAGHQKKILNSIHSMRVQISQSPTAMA

Sequence: CSGNCYLDIRP [FBN1_Y1535_R1530C]
- phosphorylation enrichment (Fes): 0.646
- phosphorylation enrichment (Jak2): 0.514
- phosphorylation enrichment (c-Src): 0.609
- phosphorylation enrichment (Fyn): 0.446
- phosphorylation enrichment (FGFR3): 0.532
- phosphorylation enrichment (c-Abl (mouse)): 0.509
- phosphorylation enrichment (EPHB1): 0.452
- phosphorylation enrichment (FGFR1): 0.646
- phosphorylation enrichment (Hck): 0.504
- phosphorylation enrichment (AncSZ): 0.591
- phosphorylation enrichment (EPHB2): 0.442
- phosphorylation enrichment (MERTK): 0.49
- phosphorylation enrichment (Fer (mouse)): 0.404
- SH2 binding enrichment (c-Src SH2): 1.37
- SH2 binding enrichment (SHP2-C SH2): 1.07
- SH2 binding enrichment (Grb2 SH2): 1.19

Sequence: ADEQIYWQIAA [CSKtide_2014]
- phosphorylation enrichment (Fes): 1.56
- phosphorylation enrichment (Jak2): 1.58
- phosphorylation enrichment (c-Src): 4.66
- phosphorylation enrichment (Fyn): 5.62
- phosphorylation enrichment (FGFR3): 6.65
- phosphorylation enrichment (c-Abl (mouse)): 5.09
- phosphorylation enrichment (EPHB1): 2.64
- phosphorylation enrichment (FGFR1): 7.87
- phosphorylation enrichment (Hck): 4.33
- phosphorylation enrichment (AncSZ): 2.59
- phosphorylation enrichment (EPHB2): 1.37
- phosphorylation enrichment (MERTK): 3.12
- phosphorylation enrichment (Fer (mouse)): 2.25
- SH2 binding enrichment (c-Src SH2): 0.439
- SH2 binding enrichment (SHP2-C SH2): 0.515
- SH2 binding enrichment (Grb2 SH2): 0.649

Sequence: PVKDPYVMFPQ [PLEKHG2_Y489]
- phosphorylation enrichment (Fes): 1.03
- phosphorylation enrichment (Jak2): 0.964
- phosphorylation enrichment (c-Src): 2.43
- phosphorylation enrichment (Fyn): 1.62
- phosphorylation enrichment (FGFR3): 1.54
- phosphorylation enrichment (c-Abl (mouse)): 0.636
- phosphorylation enrichment (EPHB1): 0.603
- phosphorylation enrichment (FGFR1): 2.05
- phosphorylation enrichment (Hck): 0.685
- phosphorylation enrichment (AncSZ): 0.982
- phosphorylation enrichment (EPHB2): 0.562
- phosphorylation enrichment (MERTK): 0.47
- phosphorylation enrichment (Fer (mouse)): 0.49
- SH2 binding enrichment (c-Src SH2): 2.35
- SH2 binding enrichment (SHP2-C SH2): 0.453
- SH2 binding enrichment (Grb2 SH2): 0.569

Sequence: WQQQSYLYSGI [CTNNB1_Y30_D32Y]
- phosphorylation enrichment (Fes): 1.48
- phosphorylation enrichment (Jak2): 1.52
- phosphorylation enrichment (c-Src): 5.93
- phosphorylation enrichment (Fyn): 7.05
- phosphorylation enrichment (FGFR3): 1.03
- phosphorylation enrichment (c-Abl (mouse)): 0.851
- phosphorylation enrichment (EPHB1): 3.97
- phosphorylation enrichment (FGFR1): 1.07
- phosphorylation enrichment (Hck): 7.73
- phosphorylation enrichment (AncSZ): 1.16
- phosphorylation enrichment (EPHB2): 5.03
- phosphorylation enrichment (MERTK): 7.49
- phosphorylation enrichment (Fer (mouse)): 5.61
- SH2 binding enrichment (c-Src SH2): 1.37
- SH2 binding enrichment (SHP2-C SH2): 0.687
- SH2 binding enrichment (Grb2 SH2): 0.972

Sequence: TNLVPYPRIHF [TUBA1A_Y262]
- phosphorylation enrichment (Fes): 0.655
- phosphorylation enrichment (Jak2): 0.624
- phosphorylation enrichment (c-Src): 0.392
- phosphorylation enrichment (Fyn): 0.378
- phosphorylation enrichment (FGFR3): 0.471
- phosphorylation enrichment (c-Abl (mouse)): 0.781
- phosphorylation enrichment (EPHB1): 1.18
- phosphorylation enrichment (FGFR1): 0.445
- phosphorylation enrichment (Hck): 0.369
- phosphorylation enrichment (AncSZ): 0.501
- phosphorylation enrichment (EPHB2): 0.422
- phosphorylation enrichment (MERTK): 0.413
- phosphorylation enrichment (Fer (mouse)): 0.449
- SH2 binding enrichment (c-Src SH2): 0.619
- SH2 binding enrichment (SHP2-C SH2): 0.842
- SH2 binding enrichment (Grb2 SH2): 0.997

Sequence: RYLKDYGEFEV [GINS1_Y156_C152Y]
- phosphorylation enrichment (Fes): 1.6
- phosphorylation enrichment (Jak2): 1.2
- phosphorylation enrichment (c-Src): 1.69
- phosphorylation enrichment (Fyn): 1.54
- phosphorylation enrichment (FGFR3): 1.36
- phosphorylation enrichment (c-Abl (mouse)): 0.771
- phosphorylation enrichment (EPHB1): 1.16
- phosphorylation enrichment (FGFR1): 1.16
- phosphorylation enrichment (Hck): 1
- phosphorylation enrichment (AncSZ): 1.75
- phosphorylation enrichment (EPHB2): 0.839
- phosphorylation enrichment (MERTK): 0.792
- phosphorylation enrichment (Fer (mouse)): 1
- SH2 binding enrichment (c-Src SH2): 0.593
- SH2 binding enrichment (SHP2-C SH2): 1.37
- SH2 binding enrichment (Grb2 SH2): 0.972

Sequence: AERKLYSGAQT [ZAP70_Y178]
- phosphorylation enrichment (Fes): 0.536
- phosphorylation enrichment (Jak2): 0.412
- phosphorylation enrichment (c-Src): 0.383
- phosphorylation enrichment (Fyn): 0.375
- phosphorylation enrichment (FGFR3): 0.457
- phosphorylation enrichment (c-Abl (mouse)): 0.545
- phosphorylation enrichment (EPHB1): 0.436
- phosphorylation enrichment (FGFR1): 0.36
- phosphorylation enrichment (Hck): 0.395
- phosphorylation enrichment (AncSZ): 0.504
- phosphorylation enrichment (EPHB2): 0.295
- phosphorylation enrichment (MERTK): 0.414
- phosphorylation enrichment (Fer (mouse)): 0.358
- SH2 binding enrichment (c-Src SH2): 0.548
- SH2 binding enrichment (SHP2-C SH2): 0.635
- SH2 binding enrichment (Grb2 SH2): 0.967

Sequence: QRIHNYFEHRF [HCN4_Y554_D553N_YF]
- phosphorylation enrichment (Fes): 0.692
- phosphorylation enrichment (Jak2): 0.34
- phosphorylation enrichment (c-Src): 0.493
- phosphorylation enrichment (Fyn): 0.441
- phosphorylation enrichment (FGFR3): 0.374
- phosphorylation enrichment (c-Abl (mouse)): 0.34
- phosphorylation enrichment (EPHB1): 0.543
- phosphorylation enrichment (FGFR1): 0.719
- phosphorylation enrichment (Hck): 0.409
- phosphorylation enrichment (AncSZ): 0.647
- phosphorylation enrichment (EPHB2): 0.443
- phosphorylation enrichment (MERTK): 0.567
- phosphorylation enrichment (Fer (mouse)): 0.343
- SH2 binding enrichment (c-Src SH2): 1.31
- SH2 binding enrichment (SHP2-C SH2): 1.22
- SH2 binding enrichment (Grb2 SH2): 1.16
